Test results published in article PMC10188367, “Improved cytosine base editors generated from TadA variants” (Nature Biotechnology, 2023).

How the values were obtained:
[1] = molecular target: the molecule itself; experiment: crystal structure; TadA*8.20 (0.15 mM) with 0.22 mM 13-nt ssDNA containing d8Az; PEG 3,350, ammonium acetate, Tris pH 8.5, 20 °C
[2] = molecular target: the molecule itself; experiment: crystal structure; TADAC-1.19 (0.3 mM) without ssDNA; PEG 3,350, ammonium citrate tribasic pH 7.0, 20 °C
[3] = molecular target: the molecule itself; experiment: crystal structure; TADAC-1.17 (0.15 mM) with 0.22 mM 13-nt ssDNA containing d8Az; PEG 3,350, Tacsimate pH 6, 20 °C
[4] = molecular target: the molecule itself; experiment: crystal structure; TADAC-1.14 (0.18 mM) without ssDNA; ammonium sulfate, HEPES pH 7.5, 20 °C

B1: TadA*8.20 (enzyme, E. coli)
chain: MSEVEFSHEYWMRHALTLAKRARDEREVPVGAVLVLNNRVIGEGWNRAIGLHDPTAHAEIMALRQGGLVMQNYRLYDATLYSTFEPCVMCAGAMIHSRIGRVVFGVRNAKTGAAGSLMDVLHHPGMNHRVEITEGILADECAALLCRFFRMPRRVFNAQKKAQSSTD
notes: E. coli tRNA adenosine deaminase TadA, laboratory-evolved variant TadA*8.20 of ABE8.20-m; 167 residues; Crystallised with a 13-nt ssDNA containing 2-deoxy-8-azanebularine; zinc enzyme; also called deaminase of ABE8.20-m; ABE8.20 TadA*; source: E. coli BL21 Star (DE3), purified (Ni-NTA, Ulp1 cleavage, reverse Ni-NTA, heparin, SEC); not shown: His, N-terminal, cleaved; SUMO, N-terminal, cleaved
stoichiometry N [1]: 2

B2: TADAC-1.19 (enzyme, E. coli)
chain: MSEVEFSHEYWMRHALTLAKRARDERGVPVGAVLVLNNRVIGEGWNRANGLHDPTAHAEIMALRQGGLVMQNYRLYDATLYSTFEPCVMCAGAMIHSRIGRVVFGVRNAKTGAAGSLMDVLHHPGMNHRVEITEGILADECAALLCRFFRMPRRVFNAQKKAQSSTD
notes: E. coli TadA variant: TadA*8.20 with E27G and I49N relative to TadA*8.20; 167 residues; the rows below are written against wild-type TadA; Crystallised without ssDNA; also called TADAC-T1.19; source: E. coli BL21, purified as described for TadA*8.20; not shown: His, N-terminal, cleaved; SUMO, N-terminal, cleaved
stoichiometry N [2]: 2

B3: TADAC-1.17 (enzyme, E. coli)
chain: MSEVEFSHEYWMRHALALAKRARDEREVPVGAVLVLNNRVIGEGWNRGIGLHDPTAHAEIMALRQGGLVMQNYRLYDATLYTTFEPCVMCAGAMIHSRIGRVVFGVRNAKTGAAGSLMDVLHHPGMNHRVEITEGILADECEALLCRFFRMPRRVFNAQKKAQSSTD
notes: E. coli TadA variant: TadA*8.20 with T17A, A48G, S82T and A142E relative to TadA*8.20; 167 residues; the rows below are written against wild-type TadA; Crystallised with a 13-nt ssDNA containing 2-deoxy-8-azanebularine; also called deaminase of CABE-T1.17; source: E. coli BL21, purified as described for TadA*8.20; not shown: His, N-terminal, cleaved; SUMO, N-terminal, cleaved
stoichiometry N [3]: 2

B4: TADAC-1.14 (enzyme, E. coli)
chain: MHEVEFSHEYWMRHALTLAKRARDEREVPVGAVLVLNNRVIGEGWNRAKGLHDPTAHAEIMALRQGGLVMQNYRLIDATLYSTFEPCVMCAGAMIHSRIGRVVFGVRNAKTHAAGSLMDVLHHPGMNHRVEITEGILADECAALLCRFFRMPRRVFNAQKKAQSSTD
notes: E. coli TadA variant: TadA*8.20 with S2H, I49K, Y76I and G112H relative to TadA*8.20; Y76I brings position 76 back to the wild-type residue; 167 residues; the rows below are written against wild-type TadA; Crystallised without ssDNA; also called deaminase of CABE-T1.14; source: E. coli BL21 Star (DE3), purified (Ni-NTA, heparin, SEC; Ulp1 tag cleavage and reverse Ni-NTA omitted); not shown: …
stoichiometry N [4]: 2
